Assay results: the supplement of paper PMC10567573

B1: RHOBTB2 (parent)
chain: NQEITKAFHVRRTNRVKECLAKGT
B2: RHOBTB3 (parent)
chain: VSHVFMLLFNVKSPTDIQDSSIIR

Variants of: B1
Assay: protein stability index of a GFP-peptide fusion (GPS, HEK-293T) (PSI 1-6); higher = more stable
Settings: c terminus: a fixed tail appended
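Note: lentivirally expressed fusions sorted by FACS into six bins by GFP to DsRed ratio, PSI derived from sequencing read proportions per bin multiplied by bin number.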

Protein stability index of substitutions, site by site:
T24: A 3.55; H 3.32; G 2.92; L 3.53; D 3.46; N 3.36; F 1.81; M 2.86; S 3.61; I 2.16; P 3.65; C 2.19; R 2.7; V 2.7; K 3.88; W 2.69
V16: A 2.78; I 2.91; T 3.02; E 3.45; K 3.41; Q 2.79; Y 1.97; S 2.95; L 3.92; P 4.09; N 3.41; D 4.7; M 2.8; F 2.48; H 2.88; R 3.21; W 3.4; C 2.51
K22: C 3.3; R 3.67; V 2.3; S 3.86; H 3.03; Q 3.28; I 2.58; F 1.88; W 2.06; N 3.18; A 4.19; M 2.73; D 3.64; L 2.61; P 3.04; E 3.87; T 3.74
A21: N 3.42; P 3.38; H 2.35; W 2.28; M 2.23; L 2.61; F 2.85; I 2.27; C 1.94; T 3.73; D 3.83; K 3.15; Q 2.65; E 3.63; Y 2.83; S 2.48; V 2.8
L20: S 4.04; P 2.39; W 2.22; V 4.62; D 3.98; E 4.03; R 2.74; G 2.97; N 3.27; M 3.59; Q 3.74; I 4.41; T 3.45; Y 2.58; F 3.44; H 2.84; K 3.83
K17: L 3.12; V 2.26; C 2.22; W 2.3; N 2.92; I 1.75; H 2.94; F 2.06; M 2.54; D 3.64; P 2.4; T 3.15; R 2.47; Y 2.36; Q 2.55; E 3.04; G 2.74; S 3.63
E18: I 1.94; G 2.88; N 2.92; Y 2.67; M 2.75; S 2.59; F 2.59; H 2.58; L 2.83; A 3.08; K 3.08; D 3.47; V 3.4; Q 2.87; P 2.59; W 2.23; T 3.93; R 2.74
R15: S 3.54; N 3.48; G 2.9; L 3.36; P 3.29; W 2.58; T 3.87; Y 2.86; M 3.78; I 3.12; K 3.29; Q 3.87; V 3.73
C19: N 3.27; S 2.81; Q 3.35; W 2.35; M 2.78; V 3.08; P 3.11; I 2.5; F 2.77; H 2.59; K 3.46; E 3.45; A 3.42; Y 2.33; G 3.41; D 3.13; R 2.9; T 3.65
G23: R 2.82; Y 2.26; W 2.61; V 1.75; C 2.67; P 3.25; D 2.73; K 4.17; E 3.64; I 2.61; L 2.56; N 3.02; H 2.84; T 2.66; Q 2.99; S 3.11; F 2.07; A 2.73

Variants of: B2
Assay: as above
Settings: c terminus: a fixed tail appended

Protein stability index of substitutions, site by site:
I17: T 2.71; H 2.01; Y 1.66; S 1.18; L 2.92; K 1.51
L8: C 2.23; P 2.34; H 2.23; S 2.78; K 2.71; D 1.81; E 1.36
T15: Y 2.63; V 3.4; F 3.38
V1: P 3.42; Q 2.22; S 2.88; I 3.46; F 2.54; E 2.08
H3: P 1.52; S 2.28; R 2.1; W 3.07; V 3.75; E 1.42
D16: F 1.93; A 2.52; Y 3.61; R 3.86; M 3.75; T 2.99; H 3.02
M6: I 2.83; F 3.03; T 2.99; Y 3.18; Q 2.24; N 2.98; E 2.43
R24: K 3.56; G 3.07; V 3.67; W 4.43; N 3.13; L 2.66
N10: I 2.19; A 2.47; L 3.27; H 3.06; P 2.3; G 2.24
F9: I 2.62; R 2.74; E 2.21; A 1.92; C 2.44; D 1.45; W 3.94; Q 1.5; N 1.93
P14: V 3.52; E 2.14; F 3.75; L 2.04; C 5.86; A 3.26; M 1.72; S 3.49
S2: D 2.44; N 2.84; V 3.75; A 2.55; M 3.95; F 3.6
I22: L 2.98; P 3.69; F 2.15; N 1.66; C 2.08; Y 2.62; Q 2.63; R 1.6
S13: K 2.17; M 3.52; C 4.63; D 2.36; Y 2.31
K12: H 2.15; W 4.11; Y 1.81; V 4.26; R 3.32; M 3.63; E 1.8; I 3.28; D 2.5; T 1.98; Q 2.78
V11: W 2.83; D 1.23; G 3.8; S 3.03; C 3.03; I 3.24; N 3.13; R 3.03; M 3.81; F 2.74; P 2.94
D19: N 2.96; P 2.41; E 3.13; K 2.3; I 3.28; R 3.06
S20: P 3.04; T 2.05; R 1.66; M 3.1
S21: T 3.42; V 2.27; C 3.76; K 1.84; H 2.35
F5: I 2.31; R 1.41; H 2.29; A 1.5; V 3.38; S 1.95
I23: L 5.03; F 4.66; V 2.75; K 1.4; H 2.28; S 2.33; G 2.5; P 1.33
V4: E 1.3; C 4.79; M 2.52; D 2.16; Q 3.13; Y 1.61; K 1.97; R 3.04
L7: R 2.4; Y 2.77; M 2.37; P 2.18; T 2.73; W 2.9; S 1.72; K 1.59; E 2.13
Q18: V 3.53; H 2.48; W 3.42; E 2.79; C 2.77; D 4.62
